The source of these data is the Human Domainome abundance scans (Beltran et al. 2025).

± gives the uncertainty stated by the source.

The series is described as follows: abundance fitness (aPCA) (normalised: wild type 0, dead -1); higher = more abundant; growth selection in yeast, the domain comes from the species named. As to conditions: Homo sapiens.
The substance “NEDD4-like E3 ubiquitin-protein ligase WWP2 D492C, O00308” showed an abundance fitness of -0.146 ± 0.061. The result for “NEDD4-like E3 ubiquitin-protein ligase WWP2 D492E, O00308” reads 0.039 ± 0.065; that for “NEDD4-like E3 ubiquitin-protein ligase WWP2 D492F, O00308”, -0.217 ± 0.044; that for “NEDD4-like E3 ubiquitin-protein ligase WWP2 D492G, O00308”, -0.158 ± 0.051. Next, “NEDD4-like E3 ubiquitin-protein ligase WWP2 D492I, O00308”: -0.212 ± 0.057; “NEDD4-like E3 ubiquitin-protein ligase WWP2 D492K, O00308”: 0.029 ± 0.074. Consider “NEDD4-like E3 ubiquitin-protein ligase WWP2 D492L, O00308”, for which the abundance fitness is -0.149 ± 0.061. The result for “NEDD4-like E3 ubiquitin-protein ligase WWP2 D492N, O00308” reads -0.137 ± 0.069; that for “NEDD4-like E3 ubiquitin-protein ligase WWP2 D492P, O00308”, -0.249 ± 0.076. The result for “NEDD4-like E3 ubiquitin-protein ligase WWP2 D492Q, O00308” reads -0.043 ± 0.088.

In turn, “NEDD4-like E3 ubiquitin-protein ligase WWP2 D492R, O00308” gave an abundance fitness of -0.223 ± 0.051. The result for “NEDD4-like E3 ubiquitin-protein ligase WWP2 D492S, O00308” reads -0.071 ± 0.053. The result for “NEDD4-like E3 ubiquitin-protein ligase WWP2 D492T, O00308” reads -0.085 ± 0.073; that for “NEDD4-like E3 ubiquitin-protein ligase WWP2 D492V, O00308”, -0.143 ± 0.049; that for “NEDD4-like E3 ubiquitin-protein ligase WWP2 D492W, O00308”, -0.319 ± 0.033. “NEDD4-like E3 ubiquitin-protein ligase WWP2 D492Y, O00308” registered an abundance fitness of -0.189 ± 0.033. The substance “NEDD4-like E3 ubiquitin-protein ligase WWP2 E443A, O00308” returned an abundance fitness of -0.065 ± 0.032.

With “NEDD4-like E3 ubiquitin-protein ligase WWP2 E443C, O00308”, the abundance fitness came out at 0.004 ± 0.076. Next, “NEDD4-like E3 ubiquitin-protein ligase WWP2 E443D, O00308”: -0.06 ± 0.075; “NEDD4-like E3 ubiquitin-protein ligase WWP2 E443F, O00308”: -0.287 ± 0.088; “NEDD4-like E3 ubiquitin-protein ligase WWP2 E443G, O00308”: -0.091 ± 0.038. “NEDD4-like E3 ubiquitin-protein ligase WWP2 E443H, O00308” displayed an abundance fitness of -0.082 ± 0.044. Next, “NEDD4-like E3 ubiquitin-protein ligase WWP2 E443I, O00308”: -0.093 ± 0.073; “NEDD4-like E3 ubiquitin-protein ligase WWP2 E443K, O00308”: -0.062 ± 0.073. The result for “NEDD4-like E3 ubiquitin-protein ligase WWP2 E443L, O00308” reads -0.183 ± 0.055; that for “NEDD4-like E3 ubiquitin-protein ligase WWP2 E443M, O00308”, -0.14 ± 0.055. The result for “NEDD4-like E3 ubiquitin-protein ligase WWP2 E443N, O00308” reads -0.019 ± 0.08. Substance “NEDD4-like E3 ubiquitin-protein ligase WWP2 E443P, O00308” registered an abundance fitness of -0.065 ± 0.064. The result for “NEDD4-like E3 ubiquitin-protein ligase WWP2 E443Q, O00308” reads -0.205 ± 0.076; that for “NEDD4-like E3 ubiquitin-protein ligase WWP2 E443R, O00308”, -0.174 ± 0.042; that for “NEDD4-like E3 ubiquitin-protein ligase WWP2 E443T, O00308”, -0.248 ± 0.085. “NEDD4-like E3 ubiquitin-protein ligase WWP2 E443V, O00308” registered an abundance fitness of -0.087 ± 0.036. Next, “NEDD4-like E3 ubiquitin-protein ligase WWP2 E443W, O00308”: -0.185 ± 0.039; “NEDD4-like E3 ubiquitin-protein ligase WWP2 E443Y, O00308”: 0.006 ± 0.058.

“NEDD4-like E3 ubiquitin-protein ligase WWP2 E451A, O00308” returned an abundance fitness of -0.153 ± 0.056. The result for “NEDD4-like E3 ubiquitin-protein ligase WWP2 E451C, O00308” reads -0.227 ± 0.063; that for “NEDD4-like E3 ubiquitin-protein ligase WWP2 E451F, O00308”, -0.572 ± 0.083; that for “NEDD4-like E3 ubiquitin-protein ligase WWP2 E451G, O00308”, -0.287 ± 0.037.

Consider “NEDD4-like E3 ubiquitin-protein ligase WWP2 E451H, O00308”, for which the abundance fitness was -0.54 ± 0.089. Next, “NEDD4-like E3 ubiquitin-protein ligase WWP2 E451I, O00308”: -0.503 ± 0.091. Next, “NEDD4-like E3 ubiquitin-protein ligase WWP2 E451K, O00308”: -0.472 ± 0.076; “NEDD4-like E3 ubiquitin-protein ligase WWP2 E451L, O00308”: -0.415 ± 0.053; “NEDD4-like E3 ubiquitin-protein ligase WWP2 E451M, O00308”: -0.122 ± 0.056.

In the case of “NEDD4-like E3 ubiquitin-protein ligase WWP2 E451N, O00308”, the abundance fitness was -0.342 ± 0.065.

Consider “NEDD4-like E3 ubiquitin-protein ligase WWP2 E451P, O00308”, for which the abundance fitness is -1.34 ± 0.3. Next, “NEDD4-like E3 ubiquitin-protein ligase WWP2 E451Q, O00308”: 0.066 ± 0.07; “NEDD4-like E3 ubiquitin-protein ligase WWP2 E451S, O00308”: -0.072 ± 0.032. The result for “NEDD4-like E3 ubiquitin-protein ligase WWP2 E451T, O00308” reads -0.229 ± 0.045; that for “NEDD4-like E3 ubiquitin-protein ligase WWP2 E451V, O00308”, -0.113 ± 0.031. The result for “NEDD4-like E3 ubiquitin-protein ligase WWP2 E451W, O00308” reads -1.18 ± 0.18; that for “NEDD4-like E3 ubiquitin-protein ligase WWP2 E451Y, O00308”, -0.378 ± 0.071; that for “NEDD4-like E3 ubiquitin-protein ligase WWP2 E457A, O00308”, -0.081 ± 0.044. “NEDD4-like E3 ubiquitin-protein ligase WWP2 E457C, O00308” yielded an abundance fitness of -0.155 ± 0.073. In turn, “NEDD4-like E3 ubiquitin-protein ligase WWP2 E457D, O00308” came in with an abundance fitness of -0.068 ± 0.062. The result for “NEDD4-like E3 ubiquitin-protein ligase WWP2 E457F, O00308” reads -0.253 ± 0.074. “NEDD4-like E3 ubiquitin-protein ligase WWP2 E457G, O00308” returned an abundance fitness of -0.116 ± 0.037. The result for “NEDD4-like E3 ubiquitin-protein ligase WWP2 E457H, O00308” reads -0.089 ± 0.035. Next, “NEDD4-like E3 ubiquitin-protein ligase WWP2 E457I, O00308”: -0.285 ± 0.042; “NEDD4-like E3 ubiquitin-protein ligase WWP2 E457K, O00308”: -0.118 ± 0.056; “NEDD4-like E3 ubiquitin-protein ligase WWP2 E457L, O00308”: -0.204 ± 0.056. The result for “NEDD4-like E3 ubiquitin-protein ligase WWP2 E457M, O00308” reads -0.349 ± 0.071.

For “NEDD4-like E3 ubiquitin-protein ligase WWP2 E457N, O00308”, the abundance fitness was -0.189 ± 0.068. Next, “NEDD4-like E3 ubiquitin-protein ligase WWP2 E457P, O00308”: -0.5 ± 0.075; “NEDD4-like E3 ubiquitin-protein ligase WWP2 E457Q, O00308”: -0.022 ± 0.056. The result for “NEDD4-like E3 ubiquitin-protein ligase WWP2 E457R, O00308” reads -0.251 ± 0.061; that for “NEDD4-like E3 ubiquitin-protein ligase WWP2 E457S, O00308”, -0.201 ± 0.061. The result for “NEDD4-like E3 ubiquitin-protein ligase WWP2 E457T, O00308” reads -0.081 ± 0.067; that for “NEDD4-like E3 ubiquitin-protein ligase WWP2 E457V, O00308”, -0.188 ± 0.031.

“NEDD4-like E3 ubiquitin-protein ligase WWP2 E457W, O00308”: the abundance fitness is -0.624 ± 0.096.

Turning to “NEDD4-like E3 ubiquitin-protein ligase WWP2 E457Y, O00308”, the abundance fitness was -0.216 ± 0.057.

Substance “NEDD4-like E3 ubiquitin-protein ligase WWP2 E480A, O00308” had an abundance fitness of -0.08 ± 0.034. The result for “NEDD4-like E3 ubiquitin-protein ligase WWP2 E480C, O00308” reads -0.611 ± 0.043; that for “NEDD4-like E3 ubiquitin-protein ligase WWP2 E480D, O00308”, 0.015 ± 0.06; that for “NEDD4-like E3 ubiquitin-protein ligase WWP2 E480F, O00308”, -0.239 ± 0.062.

For “NEDD4-like E3 ubiquitin-protein ligase WWP2 E480G, O00308”, the abundance fitness was -0.038 ± 0.033. Take “NEDD4-like E3 ubiquitin-protein ligase WWP2 E480H, O00308”: the abundance fitness came out at 0.027 ± 0.068. The result for “NEDD4-like E3 ubiquitin-protein ligase WWP2 E480I, O00308” reads -0.042 ± 0.047. Next, “NEDD4-like E3 ubiquitin-protein ligase WWP2 E480K, O00308”: -0.019 ± 0.05; “NEDD4-like E3 ubiquitin-protein ligase WWP2 E480L, O00308”: -0.072 ± 0.042.
